The source of these data is US20250263440A1, “CD38-BINDING AGENTS AND USES THEREOF” (PeptiDream Inc., priority 2019, published 2025).

Starred links: 1 amine or outer side, 2 acyl side, 3 side chain; linkers in the order of their positions; H or OH if unused. Positions of bridges follow the written chain, without caps; N, C: chain ends. Non-standard residues stand in square brackets, D forms with d. Residues, ends and D or L forms follow the SMILES beside them. No end group written: not given here. F3G = 3-guanidinophenylalanine, N=C(N)Nc1cccc(C[C@H](N[*:1])C(=O)[*:2])c1; PEG12 = NCCOCCOCCOCCOCCOCCOCCOCCOCCOCCOCCOCCOCCC(=O)O; Bip = N[C@@H](Cc1ccc(-c2ccccc2)cc1)C(=O)O; Met(O2) = CS(=O)(=O)CC[C@H](N)C(=O)O; NMeF = CN[C@@H](Cc1ccccc1)C(=O)O; hArg = N=C(N)NCCCC[C@H](N)C(=O)O; Ahp(2) = CCCCC[C@H](N)C(=O)O; PEG4 = NCCOCCOCCOCCOCCC(=O)O

B1: Circular peptide having amino acid sequence represented by SEQ ID NO.9 (peptide)
peptide: {CH2CO}-AR[Ahp(2)]YHDGV[Met(O2)][Bip][Ahp(2)]DC
modifications: thioether N-13; not fully specified
B2: Peptide of SEQ ID NO.27 (peptide)
peptide: {CH2CO}-AR[Ahp(2)]YHDEVL[Bip][Ahp(2)]AC
modifications: thioether N-13
B3: Circular peptide having amino acid sequence represented by SEQ ID NO.29 (peptide)
peptide: {CH2CO}-A[F3G][Ahp(2)]YHDEVL[Bip][Ahp(2)]DC
modifications: thioether N-13; not fully specified; also: circular peptide, closure not given here
B4: Circular peptide having amino acid sequence represented by SEQ ID NO.13 (peptide)
peptide: {CH2CO}-AR[Ahp(2)]YHDQV[Met(O2)][Bip][Ahp(2)]DC
modifications: thioether N-13; not fully specified; also: circular peptide, closure not given here
B5: Circular peptide having amino acid sequence represented by SEQ ID NO.23 (peptide)
peptide: ARXYHDEVLXXDC
modifications: not fully specified; Ahp at 3; Bph at 10; Ano ((S)-2-aminononanoic acid) at 11; circular peptide
B6: Circular peptide having amino acid sequence represented by SEQ ID NO.14 (peptide)
peptide: {CH2CO}-AR[Ahp(2)]YHDEV[Met(O2)][Bip][Ahp(2)]DC
modifications: thioether N-13; not fully specified; also: circular peptide, closure not given here
B7: Circular peptide having amino acid sequence represented by SEQ ID NO.24 (peptide)
peptide: ARXYHDEVLXXDC
modifications: not fully specified; Ahp at 3; Bph at 10; Ado ((S)-2-aminoundecanoic acid) at 11; circular peptide
B8: Circular peptide having amino acid sequence represented by SEQ ID NO.12 (peptide)
peptide: {CH2CO}-AR[Ahp(2)]YHD[hArg]VL[Bip][Ahp(2)]DC
modifications: thioether N-13; not fully specified; also: circular peptide, closure not given here
B9: Circular peptide having amino acid sequence represented by SEQ ID NO.26 (peptide)
peptide: ARXYHDEVLXXDC
modifications: not fully specified; Ahp at 3; Bph at 10; PhNva ((S)-2-amino-5-phenylpentanoic acid) at 11; circular peptide
B10: Circular peptide having amino acid sequence represented by SEQ ID NO.25 (peptide)
peptide: ARXYHDEVLXXDC
modifications: not fully specified; Ahp at 3; Bph at 10; PhNle ((S)-2-amino-6-phenylhexanoic acid) at 11; circular peptide
B11: I-2 analogue with Ala at position 10 (A L H MeF V L P Bph V A V C) (peptide)
peptide: {CH2CO}-ALH[NMeF]VLP[Bip]VAVC
modifications: thioether N-12
B12: I-2 analogue with Ala at position 9 (A L H MeF V L P Bph A W V C) (peptide)
peptide: {CH2CO}-ALH[NMeF]VLP[Bip]AWVC
modifications: thioether N-12
B13: I-2 analogue with Ala at position 11 (A L H MeF V L P Bph V W A C) (peptide)
peptide: {CH2CO}-ALH[NMeF]VLP[Bip]VWAC
modifications: thioether N-12

The target in one test is T1, CD38 (Homo sapiens, UniProt P28907).
T1 construct: purchased R&D Systems
Briefly: ELISA binding assay of I-1 / I-2 sequence variants to CD38. Conditions: compounds similar to I-1, larger values indicate stronger binding. Here is the method:
Recombinant human CD38 proteins were purchased from R&D Systems. In some embodiments, the following codons were used. ClAc-Ala: N-Chloroacetyl-L-alanine; MePhe: N-Methyl-L-phenylalanine; MeGly: N-Methyl-glycine; Ahp: (S)-2-aminoheptanoic acid; Bph: (S)-3-([1,1′-biphenyl]-4-yl)-2-aminopropanoic acid.
A number of compounds having similar structures to compound I-1 (difference being amino acid sequence) were prepared and assessed in an ELISA assay. The first sequence is of I-1, and SEQ ID.NO.1.
A number of compounds having similar structures to compound I-2 (difference being amino acid sequence) were prepared and assessed in an ELISA assay. The first sequence is of I-2, and SEQ ID NO. 2.
On the technique in general: ELISA stands for enzyme-linked immunosorbent assay.
On to “A R Ahp A H D G V L Bph Ahp D C: compound of similar structure to I-1, difference being amino acid sequence: Ala at position 4 (AHDGVL[Bip][Ahp(2)]DC; not fully specified (N-terminus, bridges))”, for which the “Binding Assay” value was 0.11.
For the molecule “A R Ahp Y A D G V L Bpb Ahp D C: compound of similar structure to I-1, difference being amino acid sequence: Ala at position 5 (YADGVL; not fully specified (N-terminus, C-terminus, bridges))”, the “Binding Assay” value was determined as 0.28.
Take “A R A Y H D G V L Bph Ahp D C: compound of similar structure to I-1, difference being amino acid sequence: Ala at position 3 (ARAYHDGVL[Bip][Ahp(2)]DC; not fully specified (N-terminus, bridges))”: the “Binding Assay” value was found to be 0.11.
For the molecule `CCCCC[C@@H]1NC(=O)[C@H](CCCNC(=N)N)NC(=O)[C@H](C)NC(=O)CSC[C@@H](C(N)=O)NC(=O)[C@H](CC(=O)O)NC(=O)[C@H](CCCCC)NC(=O)[C@H](Cc2ccc(-c3ccccc3)cc2)NC(=O)[C@H](CC(C)C)NC(=O)[C@H](C(C)C)NC(=O)CNC(=O)[C@H](CC(=O)O)NC(=O)[C@H](Cc2c[nH]cn2)NC(=O)[C@H](Cc2ccc(O)cc2)NC1=O` [I-1], the “Binding Assay” value worked out at 1.97.
Same read-out and setting: with “A A Ahp Y H D G V L Bph Ahp D C: compound of similar structure to I-1, difference being amino acid sequence: Ala at position 2 (YHDGVL[Bip][Ahp(2)]DC; not fully specified (N-terminus, bridges))” the figure was 0.60.

The test is the same for the next values; noted with them: compounds similar to I-2, larger values indicate stronger binding.
For the molecule “A L H MeF V L P A V W V C: compound of similar structure to I-2, difference being amino acid sequence: Ala at position 8 (VLPAVWVC; not fully specified (N-terminus, bridges))”, the “Binding Assay” value is 0.09.
“A L H A V L P Bph V W V C: compound of similar structure to I-2, difference being amino acid sequence: Ala at position 4 (ALHAVLP[Bip]VWVC; not fully specified (N-terminus, bridges))”: the “Binding Assay” value was determined as 0.10.

The next test addresses T2, His-tagged CD38 (human, UniProt P28907 43-300, limits assumed).
T2 construct: The order of CD38 and tag is not known; not shown: His tag
Description: SPR (Biacore S200), His-tagged CD38 immobilised, single-cycle kinetics.
Conditions: not given
How it is done:
EDC/NHS mixture was injected at a flow rate of […] for 7 minutes to thereby activate the functional groups on sensor chip. His-tagged CD38 in Running Buffer (10 mM HEPES pH7.4, 150 mM NaCl, 0.05% Tween 20) was injected immobilized to at a flow rate of […]. For 7 minutes to immobilize the CD38 on the substrate surfaces of the sensor chip. Then Ethanolamine was injected at a flow rate of […] for 7 minutes.
1.0 M Ethanolamine(aq.) was injected at a flow rate of 10 L/min for 420 seconds for capping. 10 mM peptides (which were synthesised described above) in DMSO were diluted to obtain 10 uM with Running Buffer, and prepared 100 nM, 50 nM, 25 nM, 10 nM, 5 nM of each peptide's solutions (Peptide Samples).
Using these Peptide Samples, kinetics of peptides against His-tagged CD38 was measured. The method adopted for sample measurement was a single-cycle kinetics method. The analysis was conducted using the evaluation software 1.1 provided with Biacore S200. A DMSO correction curve obtained by solvent correction measurements was applied for the analysis. Kinetics fitting was done on the difference data obtained by subtracting the baseline data from sample measurement data.
B1 gave a dissociation constant (Kd) of 9.44 nM.
Still for that read-out and setting: for B2 the value was 4.99 nM; for B3, 2 nM; for B4, 22.2 nM.
The same measure, in the same setting: with B5 the figure was 3.34 nM; with B6, 38 nM; with B7, 3.53 nM.
B8: the Kd was determined as 2.29 nM.
B9 showed a Kd of 26 nM.
As for B10, the Kd was 1.38 nM.

For another test, the target named is T1, CD38. Briefly: SPR assay (BIACORE T200, Sensor Chip CM3, single-cycle kinetics) of binding to immobilized CD38. Conditions: SPR Biacore T200, CM3 chip, HBS-EP with 1% DMSO; read-out: Ka (association rate constant). How it is done:
One of many useful technology for assessing CD38 binding is surface plasmon resonance (SPR). For example, the binding constant of I-1 (SEQ ID NO. 1; same as below) and I-2 (SEQ ID NO. 2; same as below) to CD38 was analyzed by a SPR assay using BIACORE T200 (cytiva: Former GE Healthcare). After the equilibration of Series S Sensor Chip CM3 (produced by cytiva: Former GE Healthcare) with Running Buffer (HBS-EP with 1% (v/v) DMSO), an EDC/NHS mixture was injected at a flow rate of […] for 4 minutes to thereby activate the functional groups on sensor chip. CD38 in 10 mM Acetate (pH5.5) was injected immobilized to at a flow rate of 5 L/min. For 4 minutes to immobilize the CD38 on the substrate surfaces of the sensor chip. Then Ethanolamine was injected at a flow rate of […] for 4 minutes. 1.0 M Ethanolamine (aq.) was injected at a flow rate of […] for 420 seconds for capping. 10 mM Peptides in DMSO were diluted to obtain 10 uM with Running Buffer, and prepared 100 nM, 50 nM, 25 nM, 10 nM, 5 nM of each peptide solutions (Peptide Samples).
Using these Peptide Samples, kinetics of peptides against CD38 was measured. The method adopted for sample measurement was a single-cycle kinetics method. The analysis was conducted using the evaluation software provided with Biacore T200. A DMSO correction curve obtained by solvent correction measurements was applied for the analysis. Kinetics fitting was done on the difference data obtained by subtracting the baseline data from sample measurement data.
KD values were calculated based on the association rate constant (ka) and dissociation rate constant (kd).
The binding constant of pegylated compounds was analyzed by a surface plasmon resonance as in the Example −2.
In general terms: Surface plasmon resonance follows binding to a sensor surface in real time, without labels.
For `CCCCC[C@@H]1NC(=O)[C@H](CCCNC(=N)N)NC(=O)[C@H](C)NC(=O)CSC[C@@H](C(N)=O)NC(=O)[C@H](CC(=O)O)NC(=O)[C@H](CCCCC)NC(=O)[C@H](Cc2ccc(-c3ccccc3)cc2)NC(=O)[C@H](CC(C)C)NC(=O)[C@H](C(C)C)NC(=O)CNC(=O)[C@H](CC(=O)O)NC(=O)[C@H](Cc2c[nH]cn2)NC(=O)[C@H](Cc2ccc(O)cc2)NC1=O` [I-1], the kon is 770000 M⁻¹ s⁻¹.

The test is the same for the next values; noted with them: SPR Biacore T200, CM3 chip, HBS-EP with 1% DMSO; read-out: Kd (dissociation rate constant).
For `CCCCC[C@@H]1NC(=O)[C@H](CCCNC(=N)N)NC(=O)[C@H](C)NC(=O)CSC[C@@H](C(N)=O)NC(=O)[C@H](CC(=O)O)NC(=O)[C@H](CCCCC)NC(=O)[C@H](Cc2ccc(-c3ccccc3)cc2)NC(=O)[C@H](CC(C)C)NC(=O)[C@H](C(C)C)NC(=O)CNC(=O)[C@H](CC(=O)O)NC(=O)[C@H](Cc2c[nH]cn2)NC(=O)[C@H](Cc2ccc(O)cc2)NC1=O` [I-1], the koff was 0.0018 s⁻¹.

Still in this test, the particulars now being: pegylated compounds; SPR as in Example 2.
On to `CC(C)C[C@@H]1NC(=O)[C@H](C)NC(=O)CSC[C@@H](C(=O)NCCOCCOCCOCCOCCC(=O)N[C@@H](CCCCN)C(N)=O)NC(=O)[C@H](C(C)C)NC(=O)[C@H](Cc2c[nH]c3ccccc23)NC(=O)[C@H](C(C)C)NC(=O)[C@H](Cc2ccc(-c3ccccc3)cc2)NC(=O)[C@@H]2CCCN2C(=O)[C@H](CC(C)C)NC(=O)[C@H](C(C)C)NC(=O)[C@H](Cc2ccccc2)N(C)C(=O)[C@H](Cc2c[nH]cn2)NC1=O` [I-5] ({CH2CO}-ALH[NMeF]VLP[Bip]VWVC[PEG4]K-NH2; thioether N-12), for which binding was put at a Kd of 10.5 nM.
`CC(C)C[C@@H]1NC(=O)[C@H](C)NC(=O)CSC[C@@H](C(=O)NCCOCCOCCOCCOCCOCCOCCOCCOCCOCCOCCOCCOCCC(=O)N[C@@H](CCCCN)C(N)=O)NC(=O)[C@H](C(C)C)NC(=O)[C@H](Cc2c[nH]c3ccccc23)NC(=O)[C@H](C(C)C)NC(=O)[C@H](Cc2ccc(-c3ccccc3)cc2)NC(=O)[C@@H]2CCCN2C(=O)[C@H](CC(C)C)NC(=O)[C@H](C(C)C)NC(=O)[C@H](Cc2ccccc2)N(C)C(=O)[C@H](Cc2c[nH]cn2)NC1=O` [I-6] ({CH2CO}-ALH[NMeF]VLP[Bip]VWVC[PEG12]K-NH2; thioether N-12) gave a Kd of 11.7 nM.
In turn, `CCCCC[C@@H]1NC(=O)[C@H](CCCNC(=N)N)NC(=O)[C@H](C)NC(=O)CSC[C@@H](C(=O)NCCOCCOCCOCCOCCOCCOCCOCCOCCOCCOCCOCCOCCC(=O)N[C@@H](CCCCN)C(N)=O)NC(=O)[C@H](CC(=O)O)NC(=O)[C@H](CCCCC)NC(=O)[C@H](Cc2ccc(-c3ccccc3)cc2)NC(=O)[C@H](CC(C)C)NC(=O)[C@H](C(C)C)NC(=O)CNC(=O)[C@H](CC(=O)O)NC(=O)[C@H](Cc2c[nH]cn2)NC(=O)[C@H](Cc2ccc(O)cc2)NC1=O` [I-4] came in with a Kd of 4.3 nM.

Another test has as its target Recombinant human CD38 protein (R&D Systems) (human, UniProt P28907 43-300). Briefly: ELISA.
Conditions: not given
On to B11, for which the “Binding Assay (larger values indicate stronger binding)” value was 0.1.
Still for that read-out and setting: for B12 the value was 0.12; for B13, 0.41.

The term Kd denotes a measure of binding affinity in units of concentration.
